# Measured values: PMC5861439
# Biological target: Saccharomyces cerevisiae Asf1 (2–169) (Saccharomyces cerevisiae) (UniProt P32447)
# Experiment: MST
# Chain of Saccharomyces cerevisiae Asf1 (2–169) (Saccharomyces cerevisiae) (P32447 2-169): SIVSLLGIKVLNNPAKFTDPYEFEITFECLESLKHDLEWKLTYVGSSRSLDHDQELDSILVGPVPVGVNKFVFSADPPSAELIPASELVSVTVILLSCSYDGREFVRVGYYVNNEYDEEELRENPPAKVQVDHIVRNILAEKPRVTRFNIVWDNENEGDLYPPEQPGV
# Chain of full-length Saccharomyces cerevisiae Rtt109 (Q07794 whole entry): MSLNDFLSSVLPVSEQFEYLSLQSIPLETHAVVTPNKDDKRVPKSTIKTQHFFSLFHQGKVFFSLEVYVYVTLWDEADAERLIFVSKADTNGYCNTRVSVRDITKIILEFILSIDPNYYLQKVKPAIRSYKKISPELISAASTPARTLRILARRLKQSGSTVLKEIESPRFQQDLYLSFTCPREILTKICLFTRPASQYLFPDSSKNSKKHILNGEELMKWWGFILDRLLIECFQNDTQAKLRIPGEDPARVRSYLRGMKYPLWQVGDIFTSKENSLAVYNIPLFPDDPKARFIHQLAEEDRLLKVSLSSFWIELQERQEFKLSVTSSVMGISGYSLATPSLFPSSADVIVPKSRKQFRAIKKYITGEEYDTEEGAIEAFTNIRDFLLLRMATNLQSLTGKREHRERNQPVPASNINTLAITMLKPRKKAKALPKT
# Chain of Rtt109−Vps75_(2) complex (Q07794 whole entry): as above
# Chain of Rtt109−Vps75_(2) complex (P53853 whole entry): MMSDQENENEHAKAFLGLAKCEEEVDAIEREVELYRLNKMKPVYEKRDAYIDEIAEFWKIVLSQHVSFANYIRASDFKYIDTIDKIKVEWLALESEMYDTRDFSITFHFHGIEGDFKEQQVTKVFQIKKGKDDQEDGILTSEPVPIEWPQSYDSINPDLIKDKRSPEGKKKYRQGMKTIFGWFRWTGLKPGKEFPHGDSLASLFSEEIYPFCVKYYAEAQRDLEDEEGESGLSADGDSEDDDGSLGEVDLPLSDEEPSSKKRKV
row,Substance,Kd [µM]
1,Rtt109−Vps75_(2) complex (from UniProt Q07794;P53853),42.7
2,full-length Saccharomyces cerevisiae Rtt109 (from UniProt Q07794 1-436) (enzyme),7.63
